From patent publication US7790155B2, “Calbindin-D28K protection against glucocorticoid induced cell death” (University of Medicine and Dentistry of New Jersey, priority 2002, dated 2010)
“Also recorded” adds a separate entry of the source.

B1: calbindin-D28k: calcium binding protein (polypeptide of SEQ ID NO:2), expressed in cells from pREP4 or BSRα calbindin-D28k expression vectors (protein, listed as Homo sapiens)
chain: MAESHLQSSLITASQFFEIWLHFDADGSGYLEGKELQNLIQELQQARKKAGLELSPEMKTFVDQYGQRDDGKIGIVELAHVLPTEENFLLLFRCQQLKSCEEFMKTWRKYDTDHSGFIETEELKNFLKDLLEKANKTVDDTKLAEYTDLMLKLFDSNNDGKLELTEMARLLPVQENFLLKFQGIKMCGKEFNKAFELYDQDGNGYIDENELDALLKDLCEKNKQDLDINNITTYKKNIMALSDGGKLYRTDLALILCAGDN

Legend:
[1] = tested on: primary osteoblasts; assay: Dexamethasone induced cell death of primary osteoblasts, trypan blue uptake; assay type: cell-based, murine; details: 16 h dex. treatment (10^−6M)
Protocol: Cell viability was monitored by trypan blue exclusion. Nonadherent cells were combined with adherent cells released from the culture dish using trypsin-EDTA, resuspended in medium containing serum and collected by centrifugation. 0.04% trypan blue was added and the 150 cells per condition are counted). DNA fragmentation was measured by the TUNEL (transferase biotin-dUTP nick endlabeling). […] 104, 1363-1374; and Bellido, T., O'Brien, C. A., Roberson, P. K., and Manolagas, S. C. (1998) J. Biol. Chem. 273, 21137-21144).
In addition to MLO-Y4 cells, it will also be possible to determine the effect of dexamethasone in the presence or absence of calbindin-D28k on apoptotic cell death and on caspase 3 activity (with the methodology outlined above) using primary osteoblastic cells from calbindin-D28k KO and WT mice. Murine osteoblasts will be isolated from pups 30-72 h old from our colony of WT (C57BL6) or calbindin-D28k KO mice (cite 22 of grant, cite 111 of grant) by controlled digestion with collagenase (cite 112 of grant). Briefly calvariae, trimmed of fibrous tissue and divided in 2 are transferred to 15 ml conical sterile tubes, washed with PBS (5 ml) 3× at 37° C. (10 min/wash) in an oscillating H2O bath. Calvariae are then subjected to a series of collagenase digestions (200 μg/Ml PBS collagenase CLS2 from Worthington) in an oscillating 37° C. […]

[2] = tested on: lymphocytes; details: stable expression of calbindin-D28k cDNA in lymphocytes (Dowd et al. 1992); cited from earlier work
[3] = tested on: MC3T3-E1 cells; details: MC3T3-E1 cells transfected with calbindin-D28K cDNA vs empty vector; cited from earlier work
[4] = tested on: MLO-Y4 osteocytic cells; assay: Dexamethasone induced cell death of MLO-Y4 cells transfected with calbindin-D28k expression vector (trypan blue, TUNEL, morphology); assay type: cell-based, murine; details: MLO-Y4 cells transfected with pREP4 or BSRα calbindin-D28k vector vs vector alone, 10^−6M dexamethasone, 6, 12 and 24 h
Protocol: Murine osteocytic MLO-Y4 cells (provided by Dr. Lynda Bonewald, University of Texas Health Center at San Antonio, Tex.), and primary bone cells (isolated from neonatal murine calvaria) were cultured as indicated previously (Kato, Y., Windle, J. J., Koop, B. A., Mundy, G. R., and Bonewald, L. F. (1997) J. Bone Miner Res. 12, 2014-2023) (Bellido, T., Borba, V. Z. C., Roberson, P. K., and Manolagas, S. C. (1997) Endocrinology 138, 3666-3676). All culture media contained 100 units/ml penicillin and 100 μg/ml streptomycin. Cultures were kept in a humidified atmosphere of 5% CO2 in air at 37° C.
Transient transfections of MLO-Y4 cells were carried out in 12-well culture plates using SUPERFECT®. […] After 6, 12 and 24 h, apoptosis was induced by addition of 10^−6M dexamethasone and quantified as indicated below or cell lysates collected for the analysis of calbindin-D28k by Western blotting and radioimmunoassay (cite 65 of grant).
Cell viability was monitored by trypan blue exclusion. […] 0.04% trypan blue was added and the 150 cells per condition are counted). DNA fragmentation was measured by the TUNEL (transferase biotin-dUTP nick endlabeling). […]
Data were analyzed by one-way analysis of variance, and the Student-Keuls-Newman method was used to estimate the level of significance of differences between means. […]

Molecule | % of dead cells (trypan blue uptake) ([1]; in the absence of calbindin-D28k) [%] | % of dead cells (trypan blue uptake) ([1]; in the presence of calbindin-D28k, p<0.05) [%] | protection against glucocorticoid induced lymphocyte cell death [2] | pro-apoptotic effect of TNF (nuclear fragmentation) [3] | protection against glucocorticoid (dexamethasone) induced cell death [4] | protection against glucocorticoid (dexamethasone) induced cell death ([4]; listed as calbindin-D28K)
C[C@@H]1C[C@H]2[C@@H]3CCC4=CC(=O)C=C[C@]4(C)[C@@]3(F)[C@@H](O)C[C@]2(C)[C@@]1(O)C(=O)CO [dex., dexamethasone, reference compound] | 23.2±3 |  |  |  |  | 
B1 |  | 12.9±2.4 | protect against glucocorticoid induced lymphocyte cell death | significantly attenuated | protection; also recorded: protected against glucocorticoid induced cell death | protection against dexamethasone induced cell death
